Publication PMC2913173 (Journal of molecular biology, 2009)
Ends that are not written are not given here. eCPX = enhanced circularly permuted OmpX display protein

Target: T1, Bcl-xL (Homo sapiens, UniProt Q07817, DEL46-85)
Assay: Cell surface display equilibrium binding assay with flow cytometry
Details: cells displaying Bak–eCPX fusions, biotinylated Bcl-xL and SAPE

Row | Substance | Binding to Bcl-xL in words (fluorescence of cell population)
1 | Bak(74–87) GG: eCPX–Bak(74–87) in which the GQ sequence preceding the Bak peptide was changed to GG (GGVGRQLAIIGDDINR-eCPX) | bound Bcl-xL equally as well as Bak(72–87)
2 | Bak(72–85): Bak(72–87) with deletion of residues N86 and R87, eCPX fusion (GQVGRQLAIIGDDI-eCPX) | reduction in binding to nearly background levels
3 | Bak(72–117): eCPX fusion protein comprising helices α3 and α4 of Bak (GQVGRQLAIIGDDINRRYDSEFQTMLQHLQPTAENAYEYFTKIATS-eCPX) | fluorescence only slightly above background levels
4 | mut8: Bak(72–87) library variant: position 74 L, 78 L, 81 F, 85 F (GQLGRQLAIFGDDFNR-eCPX) | highest fluorescence
5 | L78A: Bak(72–87) with the critical leucine in position 78 changed to alanine, displayed on eCPX (GQVGRQAAIIGDDINR-eCPX) [Construct L78A] | only background fluorescence
6 | mut7: Bak(72–87) library variant: position 74 L, 78 L, 81 L, 85 F (GQLGRQLAILGDDFNR-eCPX) | highest fluorescence

Target: T1, Bcl-xL
Assay: not given
Details: L78A amino acid change relative to Bak(72–87); cited from earlier work

Row | Substance | Decrease in binding affinity of Bak(72–87) for Bcl-xL
7 | L78A: Bak(72–87) with the critical leucine in position 78 changed to alanine, displayed on eCPX (GQVGRQAAIIGDDINR-eCPX) [Construct L78A] | ~1000 fold
